± gives the standard error. Fewer inactive variants are shown than the library holds.
B1: glmS ribozyme (parent)
chain: AUAAAAGCGCCAGAACUACAGAAAUGUAGUUGACGAGGAGGAGGUUUAUCGAAUUUUCGGCGGAUGCCUCCAAA

Legend:
Details in all cases: with glucosamine-6-phosphate
[1] = variants of: B1; test: self-cleavage kobs at 640 uM GlcN6P; higher = faster cleavage; RNA array
Outline: (§1)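 Barcoded ribozyme variants were transcribed in situ on sequenced MiSeq chips by E. coli RNA polymerase. At 37 °C, a hybridised Cy3 probe tracked them while glucosamine-6-phosphate (40 μM to 10 mM) in HEPES/KCl/Mg(OAc)2 buffer flowed in and tiles were imaged over ~14 h. Per-tile medians of signals normalised to baseline and to non-cleaving reference variants were fit to one- or two-exponential decays, giving kobs. kcat and KM came from weighted Michaelis–Menten fits across concentrations.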

[2] = variants of: B1; test: self-cleavage kobs at 2500 uM GlcN6P; higher = faster cleavage; RNA array
Outline: as §1

[3] = variants of: B1; test: self-cleavage kobs at 10000 uM GlcN6P; higher = faster cleavage; RNA array
Outline: as §1

Variant | self-cleavage kobs at 640 uM GlcN6P [1] | self-cleavage kobs at 2500 uM GlcN6P [2] | self-cleavage kobs at 10000 uM GlcN6P [3]
AUAAAUGCGCGAGAACUACAGAAAUGUAGUUGACGAGGAGGAGGUUUAUCGAAUUUUCGGCGGAUGCAUGCAAA [A6U C11G C68A C70G] | < 1e-05 s⁻¹ | < 1e-05 s⁻¹ | 
AUAAAACCGCCAGAACUACAGAAAUGUAGUUGACGAGGCCGAGUUUUAUCGAAUUUUCGGCGGAUGCCUCCAAA [G7C A39C G40C G44U] | < 1e-05 s⁻¹ |  | 
AUAAAAGCGCCAGAACUACAGAAAUGUAGUUGACGAGGAAGAGGCUUAUAGAAUUUUCGACGGAUGACUCCAAA [G40A U45C C50A G60A C67A] | < 1e-05 s⁻¹ | < 1e-05 s⁻¹ | 
AUAAAAGCGCCAGAGCUACAGAAAUGUAGAUGACGAGGAGGAGGUUUAUCGAAUUUUCGGCGGAUGACUUCAAA [A15G U30A C67A C70U] | 0.000654 ± 0.00016 s⁻¹ | 9.99e-05 ± 4.6e-05 s⁻¹ | 0.00115 ± 0.00026 s⁻¹
AUAAAAGCGCCAGAACUACAGAAAUGUAGUUGACCAGAAGGAGGUUUAUCGAAUUUUCGGCGGAUGCCGCCAAA [G35C G38A U69G] | 0.00083 ± 0.00024 s⁻¹ |  | 
AUAAAAGCGCUAGAACUACAGAAAUGUAGUUGACGCGGGGGAGGUUUAUCGAAUUUUCGGCGGAUGGCUCCAAA [C11U A36C A39G C67G] | < 1e-05 s⁻¹ | < 1e-05 s⁻¹ | 
AUAAAAGCGCCAGAACUACAGAAAUGUAGUUGACGAGGAGUAGGUGUCCCGAAUUUUCGGCGGAUGCCUCCAAA [G41U U46G A48C U49C] | < 1e-05 s⁻¹ |  | 
AUAAAAGCGCCAGAAUUACAGAAAUGUAGUUGACGAGGAGGAGGUUUAGCGAAUUUUCGGCGGAUGCCUCCAAA [C16U U49G] | 0.000174 ± 4.8e-05 s⁻¹ | 0.000685 ± 0.00023 s⁻¹ | 0.000387 ± 6.5e-05 s⁻¹
AUAAAAGCGCCAGAACUACAGAAAUGUAGUUGACGAGGAGGAGGUCUAUCGAAUUUUCGUCGGAUGCCUCCAAA [U46C G60U] | < 1e-05 s⁻¹ | < 1e-05 s⁻¹ | 
AUAAAAGCGCCAGAACUACAGAAAUGUAGUUGACGAGGAGCAGGGUUAUCGAAUUUUCGGCGGAUGCCUCUAAA [G41C U45G C71U] | 4.68e-05 ± 1.6e-05 s⁻¹ | 0.000157 ± 3.9e-05 s⁻¹ | 
AUAAAAGCGCCAGAACUACAGAAAUGUAGUUGACGUGGAGGAGGUUUAUCGUAUUUUCGGCGGAUGCCUCCAAA [A36U A52U] | < 1e-05 s⁻¹ | < 1e-05 s⁻¹ | 
AUAAAAGCGCCAGAACUACAGAAAUGUAGUUGACGGGGAGGCGGUUUAUCGAAUUUCCUGCGGAUGCCUCCAAA [A36G A42C U57C G59U] | < 1e-05 s⁻¹ | < 1e-05 s⁻¹ | 
AUAAAAGCGCCAGAUCUACAGAAAUGUAGUUGACGAGGAGGAGGAUUAUCGAAUUUUCGGCGGAUUCCUCCAAA [A15U U45A G66U] | 4.46e-05 ± 1.6e-05 s⁻¹ |  | 
AUAAAAGCGCCAGAACUACAGAAAUGUAGUUGGCGAGGAGGAGGUUUAUCGAAUUUACGGCGGAUGCCUCCAAA [A33G U57A] | < 1e-05 s⁻¹ | < 1e-05 s⁻¹ | 
AUAAAAGCGCCAGAACUACAGAAAUGUAGUUGACGAAGAGGAGGUUUAACGAAUUUUCGGCGGAUACCUCCAAA [G37A U49A G66A] | < 1e-05 s⁻¹ |  | 
AUAAAAGCGCCCGAACUACAGAAAUGUAGUUCACGAGGAGGAGGUUUAUCGAAUUUCUGGCGGAUGCCUCCAAA [A12C G32C U57C C58U] | < 1e-05 s⁻¹ | < 1e-05 s⁻¹ | 
AUAAAAGCGCGAGAACUACAGAAAUGUAGUUGACGAGGAGGAGUUGAAUCGAAUUUUCAGCGGUUGACUCCAAA [C11G G44U U46G U47A G59A A64U C67A] | < 1e-05 s⁻¹ |  | 
AUAAAAGCGCCAGAAGUACAGAAAUGUAGUUGACGAGGAGGAGGUAUAGCGAAUUUUCGGCGGAUGGCGCGAAA [C16G U46A U49G C67G U69G C71G] | < 1e-05 s⁻¹ |  | 
AUAAAAGCGCAAGAACUACAGAAAUGUAGUUGACGAUGAGGAGGUUUAUCGAAUUUUCGGCGGGUGCCUCCAAA [C11A G37U A64G] | < 1e-05 s⁻¹ |  | 
AUAAAAGCGCCAGAACUACAGAAAUGUAGUUGACGAGGAGGAGGGCUAUCGAAUUUUCGGAGGAUUCCUCCAAA [U45G U46C C61A G66U] | < 1e-05 s⁻¹ | < 1e-05 s⁻¹ | 
AUAAAAGCGCCAGAACUACAGAAAUGUAGAUGACGAGGAGGCGGUUUAUCGAAUUUUCGGCGGAUGCCUCUAAA [U30A A42C C71U] | < 1e-05 s⁻¹ |  | 
AUAAAAGCGCCAGAACUACAGAAAUGUAGUUGACGAGGAGGAGGUUUUUCGAAUUUUCAGCGGAUGUCUCCAAA [A48U G59A C67U] | < 1e-05 s⁻¹ | < 1e-05 s⁻¹ | 

— the supplement of paper PMC7125110
